Results from PMC10916992, “APOE Christchurch‐mimetic therapeutic antibody reduces APOE‐mediated toxicity and tau phosphorylation” (Alzheimer's & Dementia, 2023).
Positions count from the first letter of the chain named. Each block holds one binder with its values, some of them ahead of it.

Experiments:
[1] = target: T1, Recombinant His-tagged full-length human ApoE4 (Homo sapiens, ApoE4 (C112R mature), UniProt P02649, Cys112 → Arg112); assay: SPR; Biacore 3000, PBS; the Fab injected at various concentrations (methods; the legend says ApoE4 over immobilised Fab); contact 120 s, dissociation 240 s, 30 μL/min; KD from ka and kd; conditions: both partners purified
T1 construct: Apolipoprotein E, human, isoform E4; their rows are written on this molecule; source: E. coli-derived, His-tagged, fee-for-service by Innovagen
Target sequence in this assay (P02649 other isoform, or with tags, fused parts or gaps Cys112 → Arg112 | Cys112 → Arg112): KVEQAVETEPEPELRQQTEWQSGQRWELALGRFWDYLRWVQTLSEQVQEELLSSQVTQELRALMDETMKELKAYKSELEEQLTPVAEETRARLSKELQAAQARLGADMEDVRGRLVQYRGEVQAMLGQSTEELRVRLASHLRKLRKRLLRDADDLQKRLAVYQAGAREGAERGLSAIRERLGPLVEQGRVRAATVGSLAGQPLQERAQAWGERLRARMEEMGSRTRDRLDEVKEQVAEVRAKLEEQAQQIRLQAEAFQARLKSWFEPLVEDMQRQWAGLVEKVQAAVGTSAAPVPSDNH

[2] = target: Recombinant His-tagged full-length human ApoE4 (human, UniProt P02649 19-317, Cys112 → Arg112); assay: SPR
Chain of Recombinant His-tagged full-length human ApoE4 (human, UniProt P02649 19-317, Cys112 → Arg112) (P02649 other isoform, or with tags, fused parts or gaps Cys112 → Arg112): as the sequence (P02649 other isoform, or with tags, fused parts or gaps Cys112 → Arg112 | Cys112 → Arg112) above

[3] = target: T2, Recombinant His-tagged full-length human ApoE3 (Homo sapiens, ApoE3, UniProt P02649); assay: ELISA; ApoE variants or peptides coated (0.0025 μg/μL in TBS with 2 mM CaCl2, 16 h 4°C); serial dilutions of purified monoclonal antibodies (0.01 to 6.7 nM in the isoform panel), 2 h RT or 16 h 4°C; HRP secondary; conditions: both partners purified
T2 construct: Apolipoprotein E, human, isoform E3 (C112, R158); ELISA used the Innovagen protein; their rows are written on this molecule; A recombinant 'full-length' ApoE from E. coli is probably the mature protein without signal peptide (surmise); also called ApoE3 FL; WT ApoE; source: E. coli-derived, His-tagged, fee-for-service by Innovagen
Target sequence in this assay (P02649 19-317): as the sequence (P02649 other isoform, or with tags, fused parts or gaps Cys112 → Arg112 | Cys112 → Arg112) above, with R112C counted along it

[4] = target: T3, ApoE3 in post mortem human brain tissue (APOEε3/ε3 PSEN1 E280A carrier) (Homo sapiens, ApoE3, UniProt P02649); assay: immunostaining of cells or tissue; formalin-fixed paraffin-embedded middle temporal gyrus sections of PSEN1 E280A carriers of different APOE genotypes; 1H4 0.012 μg/μL, 7C11 0.041 μg/μL, 19G 0.072 μg/μL overnight 4°C; HRP detection; not quantified; conditions: one partner purified
T3 construct: Apolipoprotein E, human, isoform E3; source: endogenous, post mortem human middle temporal gyrus, formalin-fixed paraffin-embedded sections
T3 sequence (P02649 19-317, stated change not applied): as the sequence (P02649 other isoform, or with tags, fused parts or gaps Cys112 → Arg112 | Cys112 → Arg112) above, with R112C counted along it

[5] = target: T4, Recombinant His-tagged full-length human ApoE2 (Homo sapiens, ApoE2 (R158C mature), UniProt P02649, Arg158 → Cys158); assay: BLI; OCTET RED 96, 25°C; ApoE variants immobilised on anti-penta-His (HS1K) sensors; 7C11.mAb in solution, titrated; conditions: both partners purified
T4 construct: Apolipoprotein E, human, isoform E2; its rows are written on this molecule; source: E. coli-derived, His-tagged, fee-for-service by Innovagen
Target sequence in this assay (P02649 other isoform, or with tags, fused parts or gaps Arg158 → Cys158 | Arg158 → Cys158): as the sequence (P02649 other isoform, or with tags, fused parts or gaps Cys112 → Arg112 | Cys112 → Arg112) above, with R112C, R158C counted along it

[6] = target: T1, Recombinant His-tagged full-length …; assay: as above; conditions: both partners purified
Target sequence in this assay (P02649 other isoform, or with tags, fused parts or gaps Cys112 → Arg112 | Cys112 → Arg112): as the sequence (P02649 other isoform, or with tags, fused parts or gaps Cys112 → Arg112 | Cys112 → Arg112) above

[7] = target: T2, Recombinant His-tagged full-length …; assay: as above; conditions: both partners purified
Target sequence in this assay (P02649 19-317): as the sequence (P02649 other isoform, or with tags, fused parts or gaps Cys112 → Arg112 | Cys112 → Arg112) above, with R112C counted along it

[8] = target: T4, Recombinant His-tagged full-length …; assay: BLI; OCTET RED 96, 25°C; msIgG1 7C11.mAb loaded on anti-mouse Fc (AMC) sensors at 20 μg/mL; ApoE variant in solution (200 nM), PBS + 0.1% BSA; conditions: both partners purified
[9] = target: T1, Recombinant His-tagged full-length …; assay: as above; conditions: both partners purified
[10] = target: T2, Recombinant His-tagged full-length …; assay: as above; conditions: both partners purified
[11] = target: T2, Recombinant His-tagged full-length …; assay: ELISA; ApoE peptide or full-length protein coated on the plate; serial dilutions of hybridoma cell supernatants; TBS with 2 mM CaCl2, 3% BSA block; conditions: one partner purified
Target sequence in this assay (P02649 19-317): as the sequence (P02649 other isoform, or with tags, fused parts or gaps Cys112 → Arg112 | Cys112 → Arg112) above, with R112C counted along it

[12] = target: T1, Recombinant His-tagged full-length …; assay: BLI; OCTET RED 96, 25°C; 7C11ch.IgG1 loaded on anti-human IgG Fc (AHC) sensors at 20 μg/mL; ApoE4 in solution (200 nM), PBS + 0.1% BSA; conditions: both partners purified

Kd [1]: ~10 nM
Kd [2]: 25.1 nM
B1: 7C11-Fab (recombinant Fab fragment of the 7C11.chIgG1 antibody) (Fab, V domains shown)
VH: EVKLVESGGGLVQPGGSLKLSCAASGFTFSRYTMSWVRQTPEKRLEWVAKIRNVGGITYYPDTVKGRFTISRDNAKNTLYLQMSSLKSEDTAMYYCARHYYGSEDYFDYWGQGTTLTVSS
VL: DNVLTQSPASLAVSLGQRATISCKASQSVDYDGDSYMNWYQQKPGQPPKVFIYAASNLESGIPARFSGSGSGTNFTLNIHPVEEEDAATYYCQQSNEDPWTFGGGTKLEIK
notes: VH CDR-1 of 7C11; VH CDR-2 of 7C11; VH CDR-3 of 7C11; VL CDR-1 of 7C11; VL CDR-2 of 7C11; VL CDR-3 of 7C11; also called Fab-7C11; 7C11.IgGFab; source: recombinant, purified, fee-for-service by Creative BioStructure

binding result [3]: binds
binding result [4]: binds
B2: 1H4.mAb (mouse monoclonal anti-ApoE antibody) (antibody, V domains shown)
VH: B1 VH with L11V, R31S, V54G, P61L, V64L, M93I, Y95F
VL: B1 VL with N74D
notes: VH CDR-1; VH CDR-2; VH CDR-3; VL CDR-1; VL CDR-2; VL CDR-3; Raised against the ApoE peptide; also called 1H4.Ab; source: hybridoma supernatant (1H4.Ab) and purified monoclonal antibody (1H4.mAb), fee-for-service by Innovagen

Kd [5]: 7.41 nM
Kd [6]: 6.07 nM
Kd [7]: 16.8 nM
Kd [8]: 28.1 nM
Kd [9]: < 0.001 nM
Kd [10]: 5.14 nM
B3: 7C11.mAb (mouse monoclonal anti-ApoE antibody, msIgG1) (antibody, V domains shown)
VH: B1 VH
VL: B1 VL
notes: VH CDR-1; VH CDR-2; VH CDR-3; VL CDR-1; VL CDR-2; VL CDR-3; Mouse IgG1; also called 7C11.Ab; ms.7C11-Ab; source: hybridoma supernatant (7C11.Ab) and purified monoclonal antibody (7C11.mAb), fee-for-service by Innovagen

binding result [11]: binds
B4: 25F.mAb (mouse monoclonal anti-ApoE3Ch antibody, clone 25F1-2) (antibody, V domains shown)
VH: EVQLQQSGAELVRPGALVKWSCKASGFNIKDYHIHWVKQRPEQGLDWIGWIDPEIDKTLYDPKFQGKARITADTSSNTAYLQLSSLTSEDTAVYYCARGTARASFDYWGQGTTLTVSS
VL: B1 VL with N2I, S35T, V50L, F51L, A54T, N74D, E85V
notes: VH CDR-1; VH CDR-2; VH CDR-3; VL CDR-1; VL CDR-2; VL CDR-3; Raised against the ApoECh peptide; also called 25F.Ab; source: hybridoma supernatant (25F.Ab) and purified monoclonal antibody (25F.mAb), fee-for-service by Innovagen

Kd [12]: < 0.001 nM
B5: 7C11.chIgG1 (chimeric mouse-human IgG1 7C11 antibody) (antibody, V domains shown)
VH: B1 VH
VL: B1 VL
notes: VH CDR-1 of 7C11; VH CDR-2 of 7C11; VH CDR-3 of 7C11; VL CDR-1 of 7C11; VL CDR-2 of 7C11; VL CDR-3 of 7C11; Human IgG1 constant regions; also called chimeric 7C11 antibody; 7C11 human chimeric antibody; source: human chimeric antibody produced as fee-for-service by Innovagen
